Laboratory results reported in PMC10877577 (ACS Chemical Biology, 2024).
Entries after “also recorded” stand apart in the source; their conditions may differ. Bridges are numbered along the chain shown (N, C = ends). Where no end group is shown, it is not given here.

Columns and labels:
sdAbs = conditions: read-out: affinity of sdAb for hapten; cited from earlier work
[1] = tested on: HEK-293T transduced with the aMinoC1 transmembrane receptor; assay: Flow cytometry of peptide-muIgG2a Fc binding to cells with aMinoC1 transmembrane receptor; assay type: cell-based, human; conditions: GWARA, HWAQA, PWAYS, QWAMM; increasing minocycline; caffeine 100 μM
Method: Flow cytometry was performed using the MACSQuant Analyzer 10 or MACSQuant X (Miltenyi Biotec). All flow cytometry data was analyzed using FlowJo v.7.6.2 software (Tree Star Inc., Ashland, OR). Cell staining was carried out by incubation with PBS containing the recommended concentration of antibodies at RT for 30 min. PBS washes were carried out between antibody staining. Cell viability was determined using viability dye SYTOX Blue Dead Cell Stain (ThermoFisher) prior to flow cytometric analysis. Cells were first gated for singlet population identified by FSC-H and FSC-A. Next, live cells were identified using a viability dye, followed by gating for target cell populations. The antibodies used in the study are as follows: CD3 PECy7 (Biolegend, 317334), Human CD34 APC-conjugated antibody (R&D system, FAB7227A), Human CD34 Alexa Fluor 488-conjugated antibody (R&D system, FAB7227G), Streptavidin PE (Biolegend, 405204), APC antihuman EGFR antibody (Biolegend, 352905), Alexa Fluor 488 antihuman EGFR antibody (Biolegend, 352907), PE anti-HA.11 Epitope Tag antibody (Biolegend, 901517), Anti-M13-HRP (Sino Biologics, 1197 mm05T-H), Anti-Myc-HRP (Genscript, A00863), and SYTOX Blue Dead Cell Stain (ThermoFisher, S10274).

[2] = tested on: MinoCAR-transduced PBMC against SupT1-EGFR+ target cells; assay type: cell-based; conditions: 0.1, 1 and 10 μM, 24 h, 1:2 E/T
Method: Transduced CAR T cells were determined by staining for the transduction marker RQR8 and normalized by the addition of nontransduced T cells. Effector cells were cocultured with 5.0 × 10^4 number of target cells (SupT1-NT, SupT1-EGFR+, SKOV3-mKate) to achieve the desired effector cell to target ratio. […] Cocultures were incubated for 24–72 h at 37 °C and 5% CO2. After incubation, plates were centrifuged at 400g for 5 min, and the supernatant containing secreted cytokines was collected for cytokine analysis. Cells were stained with anti-hCD34-APC and anti-CD3-PeCy7 to differentiate effector T cells and target cells. Cells were washed with 300 μL o PBS and stained with SYTOX Blue Dead Cell Stain dye. The percentage of target cell survival was measured relative to the number of live target cells cocultured with nonspecific CAR T cells or nontransduced PBMCs.

aMinoC1 sdAb = assay: SPR of peptide-Fc or small-molecule analytes against aMinoC1; assay type: binding, alpaca; conditions: molecules closely related to minocycline
Method: (§1) Binding assays were carried out using 1x HBS-EP+ running buffer. Various concentrations (2.5 μM with 2-fold serial dilutions) of the analyte were injected for 150 s at 30 μL/min with 150 s dissociation time. Glycine-HCl (pH 2.0) was used as the regeneration buffer for the sensor chips. For the rechallenge experiment, aMinoC1 was immobilized on a CM5 sensor chip and CX7C peptide-Fc conjugates were loaded at 100 nM and injected as the analyte for 150 s at 30 μL/min. Following the injection of peptide-Fc, a small molecule at 1 μM was injected for 300 s at 30 μL/min, using dual injection function on a Biacore 8k instrument, to dissociate the peptide-Fc from the aMinoC1-peptide complex. The system was then washed using HBS-P^+ buffer for 300 s at 30 μL/min prior to rechallenge with peptide-Fc. The cycle was repeated three times following a final dissociation step of 300 s. For the alanine scanning experiments, the anti-minocycline antibody (sdAb-muIgG2a-Fc fusion) was captured on a Protein A series S sensor chip, to a density of 3000 RU. […] Glycine-HCl (pH 1.5) was used as the regeneration buffer. In each case, flow cell 1 was used for reference subtraction, and a “0 concentration” sensogram of buffer alone was used as a double reference subtraction to factor for drift. Data analysis was carried out using Biacore T200 Evaluation Software, version 3.0, and Biacore Insight evaluation software. […]

aMinoC1-peptide complex = assay: SPR rechallenge: small-molecule-driven dissociation of peptide-Fc from immobilized aMinoC1; assay type: binding; conditions: peptide-Fc 100 nM, small molecule 1 μM
Method: Binding assays were carried out using 1x HBS-EP+ running buffer. Various concentrations (2.5 μM with 2-fold serial dilutions) of the analyte were injected for 150 s at 30 μL/min with 150 s dissociation time. Glycine-HCl (pH 2.0) was used as the regeneration buffer for the sensor chips. For the rechallenge experiment, aMinoC1 was immobilized on a CM5 sensor chip and CX7C peptide-Fc conjugates were loaded at 100 nM and injected as the analyte for 150 s at 30 μL/min. Following the injection of peptide-Fc, a small molecule at 1 μM was injected for 300 s at 30 μL/min, using dual injection function on a Biacore 8k instrument, to dissociate the peptide-Fc from the aMinoC1-peptide complex. The system was then washed using HBS-P^+ buffer for 300 s at 30 μL/min prior to rechallenge with peptide-Fc. The cycle was repeated three times following a final dissociation step of 300 s. For the alanine scanning experiments, the anti-minocycline antibody (sdAb-muIgG2a-Fc fusion) was captured on a Protein A series S sensor chip, to a density of 3000 RU. […] Glycine-HCl (pH 1.5) was used as the regeneration buffer. In each case, flow cell 1 was used for reference subtraction, and a “0 concentration” sensogram of buffer alone was used as a double reference subtraction to factor for drift. Data analysis was carried out using Biacore T200 Evaluation Software, version 3.0, and Biacore Insight evaluation software. The 1:1 Langmuir binding model was used to calculate the association (ka), dissociation (kd) rate constants, and equilibrium dissociation constant (KD).

aMinoC22 sdAb = assay: SPR of related small molecules against aMinoC22; assay type: binding, alpaca; conditions: molecules closely related to minocycline
Method: as §1

[3] = target: anti-minocycline single-domain antibody clone 1 (aMinoC1 sdAb) (alpaca)
[4] = target: anti-minocycline single-domain antibody clone 1 (aMinoC1 sdAb) (alpaca); remark: listed apart in the source
[5] = target: anti-minocycline single-domain antibody clone 1 (aMinoC1 sdAb) (alpaca); assay: SPR; Biacore T200; aMino sdAbs immobilized on a CM5 chip (4300-4600 RU); 1x HBS-EP+; analyte from 2.5 uM in 2-fold serial dilutions, 150 s at 30 uL/min, 150 s dissociation; 1:1 Langmuir model
[6] = target: anti-minocycline single-domain antibody clone 1 (aMinoC1 sdAb) (alpaca); remark: listed apart in the source
minocycline = assay: SPR
[7] = target: T1, GWARA CX7C peptide-muIgG2a-Fc fusion; assay: ELISA; conditions: chain shown with the change
T1 chain: ACPGWARAFC

[8] = target: T2, QWAMM CX7C peptide-muIgG2a-Fc fusion (disulfide 1-9 (inferred); also: fused to muIgG2a Fc, end not given here); assay: SPR
T2 chain: CPQWAMMFC

[9] = target: T3, PWAYS CX7C peptide-muIgG2a-Fc fusion (disulfide 1-9 (inferred); also: fused to muIgG2a Fc, end not given here); assay: SPR
T3 chain: CPPWAYSFC

[10] = target: T4, HWAQA CX7C peptide-muIgG2a-Fc fusion (disulfide 1-9 (inferred); also: fused to muIgG2a Fc, end not given here); assay: SPR
T4 chain: CPHWAQAFC

[11] = target: T5, GWARA CX7C peptide-muIgG2a-Fc fusion (disulfide 2-10 (inferred); also: fused to muIgG2a Fc, end not given here); assay: SPR
T5 chain: ACPGWARAFC

CC(=O)OC[C@]12[C@H](O)C(=O)C(C)=C[C@H]1O[C@@H]1[C@H](O)C[C@@]2(C)[C@]12CO2 [15-acetyl-deoxynivalenol]
Kd (sdAbs): 5000 to 215000 nM

Cn1c(=O)c2c(ncn2C)n(C)c1=O [caffeine]
peptide-muIgG2a Fc binding to membrane-bound aMinoC1 in presence of small molecule [1]: no peptide-binding inhibition; also recorded: did not result in a decrease in peptide binding
effect of other small molecules on MinoCAR cytotoxicity [2]: not affected

C[C@H]1c2cccc(O)c2C(=O)C2=C(O)[C@]3(O)C(=O)C(C(N)=O)=C(O)[C@@H](N(C)C)[C@@H]3[C@@H](O)[C@@H]21 [doxycycline]
binding to aMinoC1 (SPR) (aMinoC1 sdAb): Neither sdAb showed an interaction; also recorded: lack of binding; also recorded: without cross-reactivity
GWARA-Fc dissociation from immobilized aMinoC1 on small-molecule injection (aMinoC1-peptide complex): No enhanced dissociation
peptide-Fc (HWAQA, PWAYS and QWAMM) dissociation from immobilised aMinoC1 on small-molecule injection (aMinoC1-peptide complex): No enhanced dissociation
binding to aMinoC22 (SPR) (aMinoC22 sdAb): Neither sdAb showed an interaction; also recorded: lack of binding
effect of other small molecules on MinoCAR cytotoxicity [2]: not affected

CN(Cc1cnc2nc(N)nc(N)c2n1)c1ccc(C(=O)N[C@@H](CCC(=O)O)C(=O)O)cc1 [methotrexate]
Kd (sdAbs): 29 to 515 nM
effect of other small molecules on MinoCAR cytotoxicity [2]: not affected

Nc1c(Cl)c(Cl)nc(C(=O)O)c1Cl [picloram]
Kd (sdAbs): 3000 to 354000 nM

O=C(Nc1ccc(Cl)cc1)Nc1ccc(Cl)c(Cl)c1 [triclocarbon]
Kd (sdAbs): 0.98 to 1.37 nM

GWARA CX7C peptide-muIgG2a-Fc fusion
IL12 secreted by T cells that co-express GWARA-flexi-IL12 and aMinoC1-KDEL without minocycline (retention); released up to 150 pg/mL on day 2 and 2.2 ug/mL on day 7 with minocycline up to 2.5 uM [3]: 450 pg/mL
IFN-y release by MinoUniCAR PBMCs (aMinoC1-CD8stk-CD28TM-CD28-41BBz) with the soluble aEGFR sdAb-GWARA adaptor, 0 uM against 10 uM minocycline [4]: 1570 pg/mL
Kd [5]: 111 nM
IFN-γ secretion by PBMCs transduced with the aMinoC1/GWARA-MyD88/CD40 module against the SG3S-peptide negative control, no minocycline; tuned down about 2-fold by increasing minocycline [6]: 520 pg/mL

HWAQA CX7C peptide-muIgG2a-Fc fusion
Kd [5]: 328 nM

PWAYS CX7C peptide-muIgG2a-Fc fusion
Kd [5]: 283 nM

QWAMM CX7C peptide-muIgG2a-Fc fusion
Kd [5]: 209 nM

auxin
Kd (sdAbs): 500 to 20000 nM

B1: anti-minocycline single-domain antibody clone 1 (aMinoC1 sdAb) R64A (protein)
chain: QVQLESGGGLVQPGSSLRLSCAASGRTFSSYNIGWFRQAPKEREFVAAISWSGAATYYADSVKGRFTISRDNAKNTVYLQMNSLKPEDTAVYSCAAGRGWGTEAILDYWGQGTQVSSA
ratio to parent (minocycline): 1.15
ratio to parent [7]: 0.18

B2: anti-minocycline single-domain antibody clone 1 (aMinoC1 sdAb) R28A (protein)
chain: QVQLESGGGLVQPGSSLRLSCAASGATFSSYNIGWFRQAPKEREFVAAISWSGARTYYADSVKGRFTISRDNAKNTVYLQMNSLKPEDTAVYSCAAGRGWGTEAILDYWGQGTQVSSA
ratio to parent (minocycline): 1.28
ratio to parent [7]: 0.17

B3: anti-minocycline single-domain antibody clone 1 (aMinoC1 sdAb) S35A (protein)
chain: QVQLESGGGLVQPGSSLRLSCAASGRTFASYNIGWFRQAPKEREFVAAISWSGARTYYADSVKGRFTISRDNAKNTVYLQMNSLKPEDTAVYSCAAGRGWGTEAILDYWGQGTQVSSA
ratio to parent (minocycline): 0.97
ratio to parent [7]: 0.15

B4: anti-minocycline single-domain antibody clone 1 (aMinoC1 sdAb) G40A (protein)
chain: QVQLESGGGLVQPGSSLRLSCAASGRTFSSYNIAWFRQAPKEREFVAAISWSGARTYYADSVKGRFTISRDNAKNTVYLQMNSLKPEDTAVYSCAAGRGWGTEAILDYWGQGTQVSSA
ratio to parent (minocycline): 1.7
ratio to parent [7]: 0.23

B5: anti-minocycline single-domain antibody clone 1 (aMinoC1 sdAb) R108A (protein)
chain: QVQLESGGGLVQPGSSLRLSCAASGRTFSSYNIGWFRQAPKEREFVAAISWSGARTYYADSVKGRFTISRDNAKNTVYLQMNSLKPEDTAVYSCAAGAGWGTEAILDYWGQGTQVSSA
ratio to parent (minocycline): 0.88
ratio to parent [7]: 0.17

B6: anti-minocycline single-domain antibody clone 1 (aMinoC1 sdAb) W58A (protein)
chain: QVQLESGGGLVQPGSSLRLSCAASGRTFSSYNIGWFRQAPKEREFVAAISASGARTYYADSVKGRFTISRDNAKNTVYLQMNSLKPEDTAVYSCAAGRGWGTEAILDYWGQGTQVSSA
ratio to parent (minocycline): 1.06
ratio to parent [7]: 0.25

B7: anti-minocycline single-domain antibody clone 1 (aMinoC1 sdAb) (VHH)
VHH: QVQLESGGGLVQPGSSLRLSCAASGRTFSSYNIGWFRQAPKEREFVAAISWSGARTYYADSVKGRFTISRDNAKNTVYLQMNSLKPEDTAVYSCAAGRGWGTEAILDYWGQGTQVSSA
koff [8]: 0.0043 s⁻¹
koff [9]: 0.0056 s⁻¹
koff [10]: 0.0058 s⁻¹
koff [11]: 0.017 s⁻¹

B8: anti-minocycline single-domain antibody clone 1 (aMinoC1 sdAb) A63S (protein)
chain: QVQLESGGGLVQPGSSLRLSCAASGRTFSSYNIGWFRQAPKEREFVAAISWSGSRTYYADSVKGRFTISRDNAKNTVYLQMNSLKPEDTAVYSCAAGRGWGTEAILDYWGQGTQVSSA
ratio to parent (minocycline): 0.77
ratio to parent [7]: 0.12
